Measurements: US20120316071A1 (published 2012)
Numbering of substitutions follows the chain as printed. Names may count otherwise.

B1: Fab VH1-46_IGHD6-6*01_IGHJ1*01 S102A/S103P/S104F/H111F (APFF) & L6_IGKJ1*01 S28N/S30D/S31H (NDH) (Fab, V domains shown)
VH: QVQLVQSGAEVKKPGASVKVSCKASGYTFTSYYMHWVRQAPGQGLEWMGIINPSGGSTSYAQKFQGRVTMTRDTSTSTVYMELSSLRSEDTAVYYCAREEYAPFSAEYFQFWGQGTLVTVSS
VL: EIVLTQSPATLSLSPGERATLSCRASQNVDHYLAWYQQKPGQAPRLLIYDASNRATGIPARFSGSGSGTDFTLTISSLEPEDFAVYYCQQRSNWPPWTFGQGTKVEIKR
notes: Fab made in E. coli: VH in plasmid A (CH1, His6 and Flag tags), VL in plasmid C (kappa CL); also called H:APFF & L:NDH; APFF / NDH
B2: Fab VH1-46_IGHD6-6*01_IGHJ1*01 S102A/S103P/S104F/H111F (APFF) & L6_IGKJ1*01 S28N/S30D/S31H S52L (Fab, V domains shown)
VH: B1 VH
VL: B1 VL with S52L
notes: Fab made in E. coli: VH in plasmid A (CH1, His6 and Flag tags), VL in plasmid C (kappa CL); also called H:APFF & L:NDH S52L; APFF / NDH/S52L
B3: Fab VH1-46_IGHD6-6*01_IGHJ1*01 S102A/S103P/S104F/H111F (APFF) & L6_IGKJ1*01 S28N/S30D/S31H S52T (Fab, V domains shown)
VH: B1 VH
VL: B1 VL with S52T
notes: Fab made in E. coli: VH in plasmid A (CH1, His6 and Flag tags), VL in plasmid C (kappa CL); also called H:APFF & L:NDH S52T; APFF / NDH/S52T
B4: Fab VH1-46_IGHD6-6*01_IGHJ1*01 S102A/S103P/S104F/H111F (APFF) & L6_IGKJ1*01 S28N/S30D/S31H A55G (Fab, V domains shown)
VH: B1 VH
VL: B1 VL with A55G
notes: Fab made in E. coli: VH in plasmid A (CH1, His6 and Flag tags), VL in plasmid C (kappa CL); also called H:APFF & L:NDH A55G; APFF / NDH/A55G
B5: Fab VH1-46_IGHD6-6*01_IGHJ1*01 S102A/S103P/S104F/H111F (APFF) & L6_IGKJ1*01 S28N/S30D/S31H A55S (Fab, V domains shown)
VH: B1 VH
VL: B1 VL with A55S
notes: Fab made in E. coli: VH in plasmid A (CH1, His6 and Flag tags), VL in plasmid C (kappa CL); also called H:APFF & L:NDH A55S; APFF / NDH/A55S
B6: Fab VH1-46_IGHD6-6*01_IGHJ1*01 S102A/S103P/S104F/H111F (APFF) & L6_IGKJ1*01 S28N/S30D/S31H N53H (Fab, V domains shown)
VH: B1 VH
VL: B1 VL with N53H
notes: Fab made in E. coli: VH in plasmid A (CH1, His6 and Flag tags), VL in plasmid C (kappa CL); also called H:APFF & L:NDH N53H; APFF / NDH/N53H
B7: Fab VH1-46_IGHD6-6*01_IGHJ1*01 S102A/S103P/S104F/H111F (H:APFF) & L6_IGKJ1*01 S28N/S30D/S31H (L:NDH) (Fab, V domains shown)
VH: B1 VH
VL: B1 VL
notes: Parent template of this NNK series; Fab made in E. coli: heavy chain from Plasmid A (CH1, His6 and Flag tags), kappa light chain from Plasmid C (kappa CL); also called H:APFF & L:NDH
B8: Fab VH1-46_IGHD6-6*01_IGHJ1*01 S102A/S103P/S104F/H111F (H:APFF) & L6_IGKJ1*01 S28N/S30D/S31H N53A (Fab, V domains shown)
VH: B1 VH
VL: B1 VL with N53A
notes: Fab made in E. coli: heavy chain from Plasmid A (CH1, His6 and Flag tags), kappa light chain from Plasmid C (kappa CL); also called H:APFF & L:NDH N53A
B9: Fab VH1-46_IGHD6-6*01_IGHJ1*01 S102A/S103P/S104F/H111F (H:APFF) & L6_IGKJ1*01 S28N/S30D/S31H A55S (Fab, V domains shown)
VH: B1 VH
VL: B1 VL with A55S
notes: Fab made in E. coli: heavy chain from Plasmid A (CH1, His6 and Flag tags), kappa light chain from Plasmid C (kappa CL); also called H:APFF & L:NDH A55S
B10: Fab VH1-46_IGHD6-6*01_IGHJ1*01 S102A/S103P/S104F/H111F (H:APFF) & L6_IGKJ1*01 S28N/S30D/S31H A55C (Fab, V domains shown)
VH: B1 VH
VL: B1 VL with A55C
notes: Fab made in E. coli: heavy chain from Plasmid A (CH1, His6 and Flag tags), kappa light chain from Plasmid C (kappa CL); also called H:APFF & L:NDH A55C
B11: Fab VH1-46_IGHD6-6*01_IGHJ1*01 S102A/S103P/S104F/H111F (H:APFF) & L6_IGKJ1*01 S28N/S30D/S31H A55R (Fab, V domains shown)
VH: B1 VH
VL: B1 VL with A55R
notes: Fab made in E. coli: heavy chain from Plasmid A (CH1, His6 and Flag tags), kappa light chain from Plasmid C (kappa CL); also called H:APFF & L:NDH A55R
B12: Fab VH1-46_IGHD6-6*01_IGHJ1*01 S102A/S103P/S104F/H111F (H:APFF) & L6_IGKJ1*01 S28N/S30D/S31H N53P (Fab, V domains shown)
VH: B1 VH
VL: B1 VL with N53P
notes: Fab made in E. coli: heavy chain from Plasmid A (CH1, His6 and Flag tags), kappa light chain from Plasmid C (kappa CL); also called H:APFF & L:NDH N53P
B13: Fab VH1-46_IGHD6-6*01_IGHJ1*01 S102A/S103P/S104F/H111F I51E/N52L/S54T/G56H & L6_IGKJ1*01 (Fab, V domains shown)
VH: B1 VH with I51E, N52L, S54T, G56H
VL: not shown
notes: Fab; also called APFF ELTH
B14: Fab VH1-46_IGHD6-6*01_IGHJ1*01 S102A/S103P/S104F/H111F I51V/N52L/S54T/G56H & L6_IGKJ1*01 (Fab, V domains shown)
VH: B1 VH with I51V, N52L, S54T, G56H
VL: not shown
notes: Fab; also called APFF VLTH; APPF VLTH
B15: Fab VH1-46_IGHD6-6*01_IGHJ1*01 S102A/S103P/S104F/H111F I51T/N52L/P53A/S54T/G56H & L6_IGKJ1*01 (Fab, V domains shown)
VH: B1 VH with I51T, N52L, P53A, S54T, G56H
VL: not shown
notes: Fab; also called APFF TLATH
B16: Fab VH1-46_IGHD6-6*01_IGHJ1*01 S102A/S103P/S104F/H111F N52L/S54T/G56H & L6_IGKJ1*01 (Fab, V domains shown)
VH: B1 VH with N52L, S54T, G56H
VL: not shown
notes: Fab; also called H:APFF LTH & L:wt; APFF LTH
B17: Fab VH1-46_IGHD6-6*01_IGHJ1*01 S102A/S103P/S104F/H111F I51T/N52V & L6_IGKJ1*01 (Fab, V domains shown)
VH: B1 VH with I51T, N52V
VL: not shown
notes: Fab; also called APFF I51T/N52V
B18: Fab VH1-46_IGHD6-6*01_IGHJ1*01 S102A/S103P/S104F/H111F I51N/N52L/S54T/G56H & L6_IGKJ1*01 (Fab, V domains shown)
VH: B1 VH with I51N, N52L, S54T, G56H
VL: not shown
notes: Fab; also called APFF NLTH
B19: Fab VH5-51_IGHD5-18*01>3_IGHJ4*01 & V3-4_IGLJ1*01 (Fab, V domains shown)
VH: EVQLVQSGAEVKKPGESLKISCKGSGYSFTSYWIGWVRQMPGKGLEWMGIIYPGDSDTRYSPSFQGQVTISADKSISTAYLQWSSLKASDTAMYYCARRGYSYGYDYFDYWGQGTLVTVSS
VL: QTVVTQEPSFSVSPGGTVTLTCGLSSGSVSTSYYPSWYQQTPGQAPRTLIYSTNTRSSGVPDRFSGSILGNKAALTITGAQADDESDYYCVLYMGSGISYVFGTGTKVTVL
notes: Fab expressed in E. coli; VH was cloned into Plasmid A (CH1, His6 and Flag tags) and VL into Plasmid E (lambda CL); also called wildtype; parent Hit Fab VH5-51_IGHD5-18*01>3_IGHJ4*01 & V3-4_IGLJ1*01
B20: Fab VH5-51_IGHD5-18*01>3_IGHJ4*01 G104A & V3-4_IGLJ1*01 (Fab, V domains shown)
VH: B19 VH with G104A
VL: B19 VL
notes: Fab with CH1 (Plasmid A, His6 and Flag tags) and lambda CL (Plasmid E)
B21: Fab VH5-51_IGHD5-18*01>3_IGHJ4*01 Y105A & V3-4_IGLJ1*01 (Fab, V domains shown)
VH: B19 VH with Y105A
VL: B19 VL
notes: as for B20
B22: Fab VH5-51_IGHD5-18*01>3_IGHJ4*01 S102A & V3-4_IGLJ1*01 (Fab, V domains shown)
VH: B19 VH with S102A
VL: B19 VL
notes: as for B20
B23: Fab VH5-51_IGHD5-18*01>3_IGHJ4*01 G100A & V3-4_IGLJ1*01 (Fab, V domains shown)
VH: B19 VH with G100A
VL: B19 VL
notes: as for B20
B24: Fab VH5-51_IGHD5-18*01>3_IGHJ4*01 Y103A & V3-4_IGLJ1*01 (Fab, V domains shown)
VH: B19 VH with Y103A
VL: B19 VL
notes: as for B20
B25: Fab VH1-46_IGHD6-6*01_IGHJ1*01 S102A/S103P/S104F/H111F (APFF) & L6_IGKJ1*01 W94T (Fab, V domains shown)
VH: B1 VH
VL: B1 VL with N28S, D30S, H31S, W94T
notes: Fab from E. coli; VH in Plasmid A (CH1, His6 and Flag tags), VL in Plasmid C (kappa CL); also called APFF & W94T

What follows are binders tested against T1, Recombinant Human DLL4 (delta-like protein 4) (human, UniProt Q9NR61 27-524) (assay: ELISA, plate-coated DLL4, Fab 25 nM).
T1 construct: also called rHuman DLL4

Binder | ELISA signal at 25 nM Fab
B1 | 0.31
B2 | 0.335
B3 | 0.323
B4 | 0.316
B5 | 0.407
B6 | 0.238

The binders below were run against T1, Recombinant Human DLL4 (delta-like …) (assay: ELISA, plate-coated DLL4, Fab 6.25 nM).

Binder | ELISA signal at 6.25 nM Fab
B1 | 0.125
B2 | 0.142
B3 | 0.13
B4 | 0.125
B5 | 0.154
B6 | 0.109

The binders below were run against T2, Recombinant Human DLL4 (delta-like protein 4) (human, UniProt Q9NR61 27-524) (assay: ECL (MSD) 96-well plate assay, recombinant human DLL4 coated, Fab in solution).
T2 construct: Bought recombinant human DLL4 (R&D Systems Cat#1506-D4/CF), coated on the plate; also called rHuman DLL4; Delta-like 4

Binder | ECL signal
B7 | 17200
B8 | 14200
B9 | 20000
B10 | 8230
B11 | 9030
B12 | 18100

What follows are binders tested against T1, Recombinant Human DLL4 (delta-like …) (assay: ELISA, plate-coated DLL4, Fab 12.5 nM).

Binder | ELISA signal at 12.5 nM Fab
B1 | 0.192
B2 | 0.215
B3 | 0.215
B4 | 0.198
B5 | 0.258
B6 | 0.167

The binders below were run against T1, Recombinant Human DLL4 (delta-like …) (assay: ELISA, plate-coated DLL4, Fab 100 nM).

Binder | ELISA signal at 100 nM Fab
B1 | 0.686
B2 | 0.791
B3 | 0.653
B4 | 0.814
B5 | 0.858
B6 | 0.608

These binders were tested against T2, Recombinant Human DLL4 (delta-like …) (assay: ELISA, DLL4 coated plate, Fab in solution; average signal minus noise).

Binder | ELISA (Avgerage signal-noise)
B7 | 0.214
B8 | 0.151
B9 | 0.383
B10 | 0.146
B11 | 0.106
B12 | 0.12

What follows are binders tested against T1, Recombinant Human DLL4 (delta-like …) (assay: ELISA, plate-coated DLL4, Fab 3.125 nM).

Binder | ELISA signal at 3.125 nM Fab
B1 | 0.096
B2 | 0.095
B3 | 0.099
B4 | 0.093
B5 | 0.108
B6 | 0.089

These binders were tested against T1, Recombinant Human DLL4 (delta-like …) (assay: ELISA, plate-coated DLL4, Fab 50 nM).

Binder | ELISA signal at 50 nM Fab
B1 | 0.507
B2 | 0.546
B3 | 0.49
B4 | 0.51
B5 | 0.588
B6 | 0.416

What follows are binders tested against T3, Recombinant Human DLL4 (R&D Systems Cat#1506-D4/CF) (human, UniProt Q9NR61 27-524) (assay: ELISA titration, 2-fold dilutions from 20 nM Fab).
T3 construct: bought recombinant protein; also called rHuman DLL4; delta-like protein 4

Binder | Kd [nM]
B13 | 1 to 10
B14 | 1 to 10
B15 | > 100
B16 | 1 to 10
B17 | 10 to 100
B18 | 1 to 10

These binders were tested against T4, Recombinant Human DLL4 (delta-like protein 4) (human, UniProt Q9NR61 27-524) (assay: ECL binding assay on immobilized DLL4, Fab at 0.04 µM).
T4 construct: Bought recombinant human DLL4 (R&D Systems Cat#1506-D4/CF); also called rHuman DLL4; Delta-like ligand 4

Binder | Signal/Noise (0.04 µM)
B19 | 14.7
B20 | 15.5
B21 | 9.6
B22 | 2
B23 | 30.4
B24 | 1.2

The binders below were run against T5, Recombinant Human DLL4 (human, UniProt Q9NR61 27-524) (assay: ECL (MSD) multispot binding assay, DLL4 spotted on plate, Fab in solution).
T5 construct: also called delta-like protein 4; rHuman DLL4

Binder | ECL signal
B25 | 23200
